Experimental data as given in paper PMC12084609, “Structural insights into small-molecule agonist recognition and activation of complement receptor C3aR” (The EMBO Journal, 2025).
Changes are numbered by the printed parent chain. Values joined by “and” are separate entries in the source; they are usually repeats but may differ in a detail not shown here. Equal entries are not always repeated.

Columns and labels:
C3aR WT = target: T1, C3aR WT (Homo sapiens, UniProt Q16581); experiment: GloSensor-based cAMP assay, WT C3aR (HEK293T); format: cell-based
T1 construct: expressed in transfected cells; host or cells: HEK293T
T1 sequence (Q16581 1-482): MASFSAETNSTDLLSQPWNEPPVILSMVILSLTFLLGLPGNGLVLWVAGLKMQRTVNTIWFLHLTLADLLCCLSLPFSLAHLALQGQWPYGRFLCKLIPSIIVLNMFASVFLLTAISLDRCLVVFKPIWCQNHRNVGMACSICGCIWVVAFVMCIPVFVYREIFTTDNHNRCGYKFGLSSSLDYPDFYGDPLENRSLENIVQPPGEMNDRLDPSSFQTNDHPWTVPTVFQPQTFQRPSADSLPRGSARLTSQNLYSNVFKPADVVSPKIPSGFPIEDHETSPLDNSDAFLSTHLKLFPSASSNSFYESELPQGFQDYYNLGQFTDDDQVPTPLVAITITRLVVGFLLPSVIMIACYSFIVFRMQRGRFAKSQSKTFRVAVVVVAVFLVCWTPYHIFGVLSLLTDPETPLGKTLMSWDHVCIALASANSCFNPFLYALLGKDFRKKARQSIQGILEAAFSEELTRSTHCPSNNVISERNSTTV
Experimental: (§1) HEK293T cells were seeded on 6-well plates (NEST) and transfected with pGlosensor™-22F plasmids (Promega) and pcDNA3.1 plasmids encoding C3aR or its mutants an with N-terminal FLAG tag. After 48 h, cells were detached with Accutase solution (Sigma-Aldrich) and washed with PBS, and resuspended in assay buffer (CO2-independent medium with 0.5 mg mL^−1D-luciferin). 100,000–200,000 cells were seeded on 96-well white bottom plates (SPL) and incubated at 37 °C for 45 min followed by 45 min incubation at room temperature. After 90 min of incubation, basal luminescence signals were recorded. In total, 25 μl of test ligand with various concentrations and 1 μM Forskolin (Sigma-Aldrich) were treated to the cells and luminescence signals were measured by Tristar 2 LB 942 multimode reader (Berthold). […] Relative luminescence unit (%) was calculated with the signal of wells treated with vehicle as 0% and the signal of wells treated with 1 μM Forskolin as 100% (DiRaddo et al, [2014]). Nonlinear regression was performed using a three-parameter logistic equation.

C3aR I102^3.32A = target: T2, C3aR I102^3.32A (Homo sapiens, UniProt Q16581, I102A); experiment: GloSensor-based cAMP assay, C3aR mutant I102A; format: cell-based
T2 construct: expressed in transfected cells; host or cells: HEK293T
T2 sequence (Q16581 1-482 I102A): T1 sequence (Q16581 1-482) with I102A
Experimental: as §1

Substance: C3a: anaphylatoxin C3a, natural peptide ligand of C3aR (a 77-amino acid peptide), Sigma-Aldrich
- cAMP response (% Forskolin) (C3aR WT; Log[ligand (M)] -7, individual replicates): 13.23 % Forskolin and 9.10 % Forskolin and 12.07 % Forskolin and 14.17 % Forskolin and 11.07 % Forskolin and 5.64 % Forskolin and 5.88 % Forskolin and 10.80 % Forskolin and 18.77 % Forskolin and 9.30 % Forskolin and 7.84 % Forskolin and 11.11 % Forskolin and 5.15 % Forskolin and 8.46 % Forskolin and 12.88 % Forskolin and 7.97 % Forskolin and 4.89 % Forskolin and 13.21 % Forskolin and 8.34 % Forskolin and 9.36 % Forskolin and 10.44 % Forskolin
- cAMP response (% Forskolin) (C3aR WT; Log[ligand (M)] -8, individual replicates): 14.46 % Forskolin and 11.08 % Forskolin and 11.75 % Forskolin and 14.58 % Forskolin and 33.21 % Forskolin and 8.44 % Forskolin and 9.26 % Forskolin and 14.67 % Forskolin and 23.44 % Forskolin and 12.45 % Forskolin and 9.97 % Forskolin and 12.70 % Forskolin and 7.51 % Forskolin and 11.02 % Forskolin and 17.00 % Forskolin and 9.96 % Forskolin and 6.25 % Forskolin and 18.05 % Forskolin and 9.98 % Forskolin and 10.68 % Forskolin and 14.94 % Forskolin
- cAMP response (% Forskolin) (C3aR WT; Log[ligand (M)] -9, individual replicates): 89.10 % Forskolin and 91.75 % Forskolin and 55.83 % Forskolin and 67.46 % Forskolin and 97.65 % Forskolin and 80.78 % Forskolin and 91.72 % Forskolin and 89.77 % Forskolin and 62.11 % Forskolin and 58.26 % Forskolin and 94.14 % Forskolin and 92.02 % Forskolin and 88.40 % Forskolin and 88.60 % Forskolin and 88.28 % Forskolin and 92.79 % Forskolin and 82.03 % Forskolin and 98.67 % Forskolin and 72.46 % Forskolin and 83.05 % Forskolin and 92.23 % Forskolin
- cAMP response (% Forskolin) (C3aR WT; Log[ligand (M)] -10, individual replicates): 100.49 % Forskolin and 92.00 % Forskolin and 96.47 % Forskolin and 95.65 % Forskolin and 99.73 % Forskolin and 94.19 % Forskolin and 91.55 % Forskolin and 96.59 % Forskolin and 91.09 % Forskolin and 100.53 % Forskolin and 103.10 % Forskolin and 100.18 % Forskolin and 107.39 % Forskolin and 101.42 % Forskolin and 99.05 % Forskolin and 90.86 % Forskolin and 91.78 % Forskolin and 95.04 % Forskolin and 92.70 % Forskolin and 92.81 % Forskolin and 96.03 % Forskolin
- cAMP response (% Forskolin) (C3aR WT; Log[ligand (M)] -11, individual replicates): 101.69 % Forskolin and 104.79 % Forskolin and 99.76 % Forskolin and 97.79 % Forskolin and 100.01 % Forskolin and 95.95 % Forskolin and 100.56 % Forskolin and 98.17 % Forskolin and 98.43 % Forskolin and 104.54 % Forskolin and 103.48 % Forskolin and 99.03 % Forskolin and 107.10 % Forskolin and 101.90 % Forskolin and 98.42 % Forskolin and 97.15 % Forskolin and 94.72 % Forskolin and 92.05 % Forskolin and 96.59 % Forskolin and 94.55 % Forskolin and 98.62 % Forskolin
- cAMP response (% Forskolin) (C3aR WT; Log[ligand (M)] -12, individual replicates): 96.64 % Forskolin and 93.74 % Forskolin and 99.06 % Forskolin and 103.59 % Forskolin and 106.40 % Forskolin and 103.79 % Forskolin and 101.64 % Forskolin and 99.02 % Forskolin and 93.95 % Forskolin and 101.82 % Forskolin and 99.95 % Forskolin and 96.51 % Forskolin and 98.16 % Forskolin and 96.67 % Forskolin and 94.02 % Forskolin and 101.30 % Forskolin and 98.69 % Forskolin and 95.26 % Forskolin and 98.94 % Forskolin and 96.13 % Forskolin and 98.01 % Forskolin
- pIC50 ± SEM (Mean) (C3aR WT; WT C3aR, 1 μM Forskolin, mean of independent experiments): 8.56
- pIC50 Value (C3aR WT; WT C3aR, Figure EV1B numerical data, curve fit): 8.52
- IC50 (C3aR WT; WT C3aR, decrease in cAMP levels, read-out: IC50): 2.87 nM
- pIC50 (Replicate) (C3aR WT; WT C3aR, individual replicates): 8.46 and 8.98 and 8.82 and 8.27 and 8.58 and 8.47 (4×) and 8.89 and 8.95 and 8.48 and 8.53 (2×) and 8.50 and 8.45 and 8.54 and 8.67 and 8.44
- cAMP response (% Forskolin) (C3aR WT; WT, Log[C3a (M)] -7, single replicates): 13.23 % Forskolin and 9.10 % Forskolin and 12.07 % Forskolin and 14.17 % Forskolin and 11.07 % Forskolin and 5.64 % Forskolin and 5.88 % Forskolin and 10.80 % Forskolin and 18.77 % Forskolin and 9.30 % Forskolin and 7.84 % Forskolin and 11.11 % Forskolin and 5.15 % Forskolin and 8.46 % Forskolin and 12.88 % Forskolin and 7.97 % Forskolin and 4.89 % Forskolin and 13.21 % Forskolin and 8.34 % Forskolin and 9.36 % Forskolin and 10.44 % Forskolin
- cAMP response (% Forskolin) (C3aR WT; WT, Log[C3a (M)] -8, single replicates): 14.46 % Forskolin and 11.08 % Forskolin and 11.75 % Forskolin and 14.58 % Forskolin and 33.21 % Forskolin and 8.44 % Forskolin and 9.26 % Forskolin and 14.67 % Forskolin and 23.44 % Forskolin and 12.45 % Forskolin and 9.97 % Forskolin and 12.70 % Forskolin and 7.51 % Forskolin and 11.02 % Forskolin and 17.00 % Forskolin and 9.96 % Forskolin and 6.25 % Forskolin and 18.05 % Forskolin and 9.98 % Forskolin and 10.68 % Forskolin and 14.94 % Forskolin
- cAMP response (% Forskolin) (C3aR WT; WT, Log[C3a (M)] -9, single replicates): 89.10 % Forskolin and 91.75 % Forskolin and 55.83 % Forskolin and 67.46 % Forskolin and 97.65 % Forskolin and 80.78 % Forskolin and 91.72 % Forskolin and 89.77 % Forskolin and 62.11 % Forskolin and 58.26 % Forskolin and 94.14 % Forskolin and 92.02 % Forskolin and 88.40 % Forskolin and 88.60 % Forskolin and 88.28 % Forskolin and 92.79 % Forskolin and 82.03 % Forskolin and 98.67 % Forskolin and 72.46 % Forskolin and 83.05 % Forskolin and 92.23 % Forskolin
- cAMP response (% Forskolin) (C3aR WT; WT, Log[C3a (M)] -10, single replicates): 100.49 % Forskolin and 92.00 % Forskolin and 96.47 % Forskolin and 95.65 % Forskolin and 99.73 % Forskolin and 94.19 % Forskolin and 91.55 % Forskolin and 96.59 % Forskolin and 91.09 % Forskolin and 100.53 % Forskolin and 103.10 % Forskolin and 100.18 % Forskolin and 107.39 % Forskolin and 101.42 % Forskolin and 99.05 % Forskolin and 90.86 % Forskolin and 91.78 % Forskolin and 95.04 % Forskolin and 92.70 % Forskolin and 92.81 % Forskolin and 96.03 % Forskolin
- cAMP response (% Forskolin) (C3aR WT; WT, Log[C3a (M)] -11, single replicates): 101.69 % Forskolin and 104.79 % Forskolin and 99.76 % Forskolin and 97.79 % Forskolin and 100.01 % Forskolin and 95.95 % Forskolin and 100.56 % Forskolin and 98.17 % Forskolin and 98.43 % Forskolin and 104.54 % Forskolin and 103.48 % Forskolin and 99.03 % Forskolin and 107.10 % Forskolin and 101.90 % Forskolin and 98.42 % Forskolin and 97.15 % Forskolin and 94.72 % Forskolin and 92.05 % Forskolin and 96.59 % Forskolin and 94.55 % Forskolin and 98.62 % Forskolin
- cAMP response (% Forskolin) (C3aR WT; WT, Log[C3a (M)] -12, single replicates): 96.64 % Forskolin and 93.74 % Forskolin and 99.06 % Forskolin and 103.59 % Forskolin and 106.40 % Forskolin and 103.79 % Forskolin and 101.64 % Forskolin and 99.02 % Forskolin and 93.95 % Forskolin and 101.82 % Forskolin and 99.95 % Forskolin and 96.51 % Forskolin and 98.16 % Forskolin and 96.67 % Forskolin and 94.02 % Forskolin and 101.30 % Forskolin and 98.69 % Forskolin and 95.26 % Forskolin and 98.94 % Forskolin and 96.13 % Forskolin and 98.01 % Forskolin
- Mean Diff. of pIC50, WT vs. I102A (C3aR I102^3.32A; Dunnett's multiple comparisons test, WT minus mutant): 0.080
- ΔpIC50 ± SE of Diff. (C3aR I102^3.32A; I102^3.32A relative to WT C3aR): -0.08 ± 0.06
- IC50 (C3aR I102^3.32A; I102^3.32A, dose-response plot, read-out: IC50): 3.33 nM
- pIC50 (Replicate) (C3aR I102^3.32A; I102^3.32A, individual replicates): 8.61 and 8.63 and 8.49
- pIC50 ± SEM (Mean) (C3aR I102^3.32A; I102^3.32A, mean of independent experiments): 8.47
- cAMP response (% Forskolin) (C3aR I102^3.32A; I1023.32A, Log[C3a (M)] -7, single replicates): 12.51 % Forskolin and 13.87 % Forskolin and 13.89 % Forskolin and 16.73 % Forskolin
